Experimental data taken from publication PMC8828467, “Activation mechanism of PINK1” (Nature, 2021).
Changes are numbered by the printed parent chain. Numbers in names are those of the source.

T1: Ser202-phosphorylated PhPINK1 (amino acids 115–575), monomeric (Pediculus humanus corporis, UniProt E0W1I1 115-575, phosphoserine at 202)
T1 construct: PINK1 of Pediculus humanus corporis, amino acids 115–575, wild type, autophosphorylated at Ser202 after dephosphorylation; For the analytical SEC the monomer fractions of the SEC run were pooled; also called phospho-PhPINK1; monomeric phosphorylated PhPINK1; not shown: GST, N-terminal, cleaved
T1 sequence (looked up): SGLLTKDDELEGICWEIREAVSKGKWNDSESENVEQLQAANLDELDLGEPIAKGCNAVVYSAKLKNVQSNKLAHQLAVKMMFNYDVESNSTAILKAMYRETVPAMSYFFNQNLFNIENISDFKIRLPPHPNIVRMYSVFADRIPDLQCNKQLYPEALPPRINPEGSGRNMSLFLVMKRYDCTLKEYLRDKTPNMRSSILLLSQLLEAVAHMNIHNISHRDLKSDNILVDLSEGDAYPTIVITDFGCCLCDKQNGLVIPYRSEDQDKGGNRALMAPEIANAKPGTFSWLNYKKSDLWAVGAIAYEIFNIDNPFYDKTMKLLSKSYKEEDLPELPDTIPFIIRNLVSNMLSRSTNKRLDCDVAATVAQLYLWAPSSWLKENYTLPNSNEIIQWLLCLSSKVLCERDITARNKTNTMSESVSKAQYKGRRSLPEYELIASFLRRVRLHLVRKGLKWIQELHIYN

B1: TcPINK1(T172C/D359A) (enzyme, Tribolium castaneum, UniProt D6WMX4 117-570, looked up)
chain: TGILTKEEELEGVCWEIREAISKIKWQYYDIDESRFESNPITLNDLSLGKPIAKGCNGVVYSAKVKDDETDDNKYPFALKMMFNYDIQSNSMEILKAMYRETVPARMYYSNHDLNNWEIELANRRKHLPPHPNIVAIFSVFTDLIQELEGSKDLYPAALPPRLHPEGEGRNMSLFLLMKRYDCNLQSFLSTAPSTRTSLLLLAQLLEGVAHMTAHGIAHRDLKSDNLLLDTSEPESPILVISAFGCCLADKTNGLSLPYTSYEMDKGGNTALMAPEIICQKPGTFSVLNYSKADLWAVGAIAYEIFNCHNPFYGPSRLKNFNYKEGDLPKLPDEVPTVIQALVANLLKRNPNKRLDPEVAANVCQLFLWAPSTWLKPGLKVPTSGEILQWLLSLTTKVLCEGKINNKSFGEKFTRNWRRTYPEYLLISSFLCRAKLANVRNALHWIQENLPELD
notes: PINK1 of Tribolium castaneum with T172C and D359A; also called TcPINK1 with an equivalent T172C mutation; source: E. coli Rosetta2 (DE3) pLacI, purified (Glutathione Sepharose, 3C cleavage, SEC); not shown: GST, N-terminal, cleaved
B2: PhPINK1(D334A) (amino acids 115–575), unphosphorylated (enzyme)
chain: T1 sequence (looked up) with D220A
notes: pOPINK vector, GST tag removed with 3C PreScission protease; also called unphosphorylated PhPINK1(D334A); monomeric PhPINK1(D334A); source: E. coli Rosetta2 (DE3) pLacI, purified (Glutathione Sepharose, 3C cleavage, SEC); not shown: GST, N-terminal, cleaved
B3: PhPINK1(D357A) (amino acids 115–575) (enzyme)
chain: T1 sequence (looked up) with D243A
notes: Forms a dodecamer (two rings of three dimers); also called oligomeric PhPINK1(D357A); PhPINK1(D357A) dodecamer; source: E. coli Rosetta2 (DE3) pLacI, purified (Glutathione Sepharose, 3C cleavage, Mono Q for EM, SEC); not shown: GST, N-terminal, cleaved
B4: PhPINK1 (amino acids 143–575) (domain or fragment, Pediculus humanus corporis, UniProt E0W1I1 143-575, looked up)
chain: SESENVEQLQAANLDELDLGEPIAKGCNAVVYSAKLKNVQSNKLAHQLAVKMMFNYDVESNSTAILKAMYRETVPAMSYFFNQNLFNIENISDFKIRLPPHPNIVRMYSVFADRIPDLQCNKQLYPEALPPRINPEGSGRNMSLFLVMKRYDCTLKEYLRDKTPNMRSSILLLSQLLEAVAHMNIHNISHRDLKSDNILVDLSEGDAYPTIVITDFGCCLCDKQNGLVIPYRSEDQDKGGNRALMAPEIANAKPGTFSWLNYKKSDLWAVGAIAYEIFNIDNPFYDKTMKLLSKSYKEEDLPELPDTIPFIIRNLVSNMLSRSTNKRLDCDVAATVAQLYLWAPSSWLKENYTLPNSNEIIQWLLCLSSKVLCERDITARNKTNTMSESVSKAQYKGRRSLPEYELIASFLRRVRLHLVRKGLKWIQELHIYN
notes: PINK1 of Pediculus humanus corporis, amino acids 143–575, lacking the N-helix; also called PhPINK1 without the N-helix; the shorter PhPINK1 construct

Tests used:
[1] = target: the molecule itself; assay: cross-linking; in vitro disulphide linkage: 1.5 μM PhPINK1 or TcPINK1 with 2 mM H2O2 in 25 mM Tris (pH 7.4), 150 mM NaCl, 22 °C, time course; non-reducing gel, Coomassie
[2] = target: T1, Ser202-phosphorylated PhPINK1 (amino …); assay: SEC + other: Phos-tag SDS–PAGE; Phos-tag analysis of the oligomer species from the analytical SEC of the mixed proteins; settings: both partners purified
[3] = target: the molecule itself; assay: SEC-MALS; Superdex 200 Increase 10/300 GL; 25 mM Tris (pH 8.5), 150 mM NaCl, 5% (v/v) glycerol, 2 mM TCEP; 100 µl of purified protein at 1 mg ml^−1, 0.5 ml min^−1

Binder | stoichiometry N [3] | also measured
B1 |  | binding result [1]: binds
B2 |  | stoichiometry N [2]: 1
B3 | 2 | 
B4 | 2 | 
